Measurements: US8187838B2, “β-Galactoside-α2, 6-sialyltransferase, a gene encoding thereof, and a method for producing thereof” (Japan Tobacco Inc., priority 2006, dated 2012)

How the values were obtained:
Format in all cases: biochemical
[1] = Time-dependent induction of expression, sialyltransferase activity and productivity in E. coli homogenate; conditions: for Total enzyme activity (unit): 0.3 L culture; for Amount of transferred sialic acid / Radioactivity (CPM): 1 minute, 30° C.; for Radioactivity (CPM): crude enzyme diluted 200-fold
Description: A time-dependent induction experiment of protein expression was performed on the ISH224-N0C0 and ISH224-N1C0 clones obtained in Example 2. A single colony of E. coli TB1 having the expression vector pTrc99A carrying each clone was inoculated into LB medium (6 ml) containing an antibiotic, ampicillin (final concentration 100 μg/mL), and pre-cultured at 30° C. for about 8 hours. This pre-cultured solution was inoculated into LB medium (300 ml) containing and antibiotic, ampicillin (final concentration 100 μg/mL) and cultured with shaking at 30° C. When OD600 reached around 0.5, IPTG (isopropyl-β-D(−)-thiogalactopyranoside, Wako Pure Chemical Industries, Ltd., Japan) was added at a final concentration of 1 mM, followed by culturing with shaking at 30° C. At 4, 6, 22 and 28 hours after culturing, the cells in each culture solution were collected by centrifugation. These cells were suspended in 20 mM Bis-Tris buffer (pH 6.0) containing 0.336% […] Triton® X-100, and ultrasonically homogenized under ice cooling. The resulting homogenate was defined as a crude enzyme solution, diluted 200-fold with 20 mM cacodylate buffer (pH 5.0) containing 0.336% Triton X®-100, and then provided for activity measurement. The reaction was carried out in duplicate. The reaction conditions are as indicated in the footnote of Table 2.
(§1) Reaction Conditions Reaction composition:
Reaction time: 1 minute Reaction temperature: 30° C.

[2] = Sialyltransferase activity of samples after each purification step; conditions: for Specific activity (U/mg) / Total activity (U): Bis-Tris pH 6, 5 minutes, 25° C.
Description: Sialyltransferase activity was measured as described in J. Biochem., 120, 104-110 (1996) (which is hereby incorporated by reference in its entirety). More specifically, the enzymatic reaction was accomplished by using CMP-NeuAc (70 nmol, containing about 20,000 cpm CMP-NeuAc in which NeuAc was labeled with ^14C; NeuAc represents N-acetylneuraminic acid) as a glycosyl donor substrate, lactose (1.25 μmol) as a glycosyl acceptor substrate, NaCl added to give a concentration of 0.5 M, and the enzyme-containing reaction solution (30 μl) prepared as described above. The enzymatic reaction was carried out at 25° C. for about 10 to 180 minutes. After completion of the reaction, 1.97 ml of 5 mM phosphate buffer (pH 6.8) was added to the reaction solution, which was then applied to a Dowex 1×8 (PO4^3− form, 0.2×2 cm, BIO-RAD) column. The radioactivity was measured for the reaction product, i.e., sialyllactose contained in the eluate (0 to 2 ml) from this column to calculate the enzyme activity. One enzyme unit (1 U) is defined as the amount of enzyme required to transfer 1 micromole of sialic acid per minute.
The enzyme activity was measured by the method reported in J. Biochem. 120, 104-110 (1996), in the same manner as described in Example 1 under conditions as indicated in the footnote of Table 3-1. For protein quantification, a Coomassie Protein Assay Reagent (PIERCE) was used according to the instruction manual attached thereto. One enzyme unit (1U) was defined as the amount of enzyme required to transfer 1 micromole of sialic acid per minute.
Reaction time: 5 minutes Reaction temperature: 25° C.
The enzyme activity was measured by the method reported in J. Biochem. 120, 104-110 (1996), in the same manner as described in Example 1 under conditions as indicated in the footnote of Table 3-2. For protein quantification, a Coomassie Protein Assay Reagent (PIERCE) was used according to the instruction manual attached thereto. One enzyme unit (1U) was defined as the amount of enzyme required to transfer 1 micromole of sialic acid per minute.
as §1
Reaction time: 5 minutes Reaction temperature: 30° C.

[3] = Optimum pH, temperature and salt concentration for enzyme activity
Description: The purified enzyme prepared in Example 4-1 was used to examine the optimum pH, optimum temperature and optimum salt concentration for JT-ISH-224-derived recombinant β-galactoside-α2,6-sialyltransferase N1C0.
Acetate buffer (pH 4.0, pH 4.5 and pH 5.0), cacodylate buffer (pH 5.0, pH 5.5, pH 6.0, pH 6.5 and pH 7.0), phosphate buffer (pH 7.0, pH 7.5 and pH 8.0) and TAPS buffer (pH 8.0, pH 8.5 and pH 9.0) were prepared and used for enzyme activity measurement at 25° C. at various pH values.
The enzyme activity was measured at an interval of 5° C. starting from 10° C. up to 50° C. using cacodylate buffer (pH 5.0).
The enzyme activity was measured at 30° C. using cacodylate buffer (pH 5.0) by adjusting the NaCl concentration in the reaction solution to 0 M, 0.1 M, 0.25 M, 0.5 M, 0.75 M, 1.0 M, 1.5 M or 2.0 M.

asialofetuin = test: Sialic acid transfer to glycoprotein acceptor; conditions: 25° C., 2 hours
Description: As a glycosyl acceptor substrate, asialofetuin was used. Asialofetuin (2 mg) was dissolved in 1 ml of 20 mM Bis-Tris buffer (pH 6.0) and used as a glycosyl acceptor substrate solution. As a glycosyl donor substrate, CMP-NeuAc was used. The glycosyl acceptor substrate solution (40 μl), the glycosyl donor substrate (5 μl) and either of the enzyme solutions (5 μl, 10 mU each) were mixed and incubated at 25° C. for 2 hours to cause sialic acid transfer reaction. After completion of the reaction, the reaction solution was gel-filtered by being applied to a SEPHADEX® G-50 Superfine (0.8×18.0 cm) equilibrated with 0.1 M sodium chloride. A glycoprotein-containing eluate fraction (2-4 ml fraction) from gel filtration was collected and measured for its radioactivity using a liquid scintillation counter to quantify sialic acid transferred to the glycosyl acceptor substrate.

[4] = after MONO Q (purified fraction)

B1: ISH224-N1C0 (protein, listed as Photobacterium sp.)
chain: MSEENTQSIIKNDINKTIIDEEYVNLEPINQSNISFTKHSWVQTCGTQQLLTEQNKESISLSVVAPRLDDDEKYCFDFNGVSNKGEKYITKVTLNVVAPSLEVYVDHASLPTLQQLMDIIKSEEENPTAQRYIAWGRIVPTDEQMKELNITSFALINNHTPADLVQEIVKQAQTKHRLNVKLSSNTAHSFDNLVPILKELNSFNNVTVTNIDLYDDGSAEYVNLYNWRDTLNKTDNLKIGKDYLEDVINGINEDTSNTGTSSVYNWQKLYPANYHFLRKDYLTLEPSLHELRDYIGDSLKQMQWDGFKKFNSKQQELFLSIVNFDKQKLQNEYNSSNLPNFVFTGTTVWAGNHEREYYAKQQINVINNAINESSPHYLGNSYDLFFKGHPGGGIINTLIMQNYPSMVDIPSKISFEVLMMTDMLPDAVAGIASSLYFTIPAEKIKFIVFTSTETITDRETALRSPLVQVMIKLGIVKEENVLFWADLPNCETGVCIAV
fold higher productivity than Pasteurella multocida-derived α2,3-sialyltransferase (6,000 U/L) [1]: about 1.8 fold
fold higher productivity than Photobacterium damselae-derived recombinant β-galactoside-α2,6-sialyltransferase (224.5 U/L) [1]: about 48 fold
Enzyme concentration in crude enzyme solution (unit/ml) ([1]; 4 hours after IPTG addition): 6.8 unit/ml
Productivity (U/L of medium) ([1]; 4 hours after IPTG addition): 589 U/L of medium
Total enzyme activity (unit) ([1]; 4 hours after IPTG addition): 177 unit
Amount of transferred sialic acid ([1]; 4 hours after IPTG addition): 0.17 nmol
Radioactivity (CPM) ([1]; 4 hours after IPTG addition): 142.5 CPM
Enzyme concentration in crude enzyme solution (unit/ml) ([1]; 6 hours after IPTG addition): 14.8 unit/ml
Productivity (U/L of medium) ([1]; 6 hours after IPTG addition): 1285 U/L of medium
Total enzyme activity (unit) ([1]; 6 hours after IPTG addition): 385 unit
Amount of transferred sialic acid ([1]; 6 hours after IPTG addition): 0.37 nmol
Radioactivity (CPM) ([1]; 6 hours after IPTG addition): 311.0 CPM
Enzyme concentration in crude enzyme solution (unit/ml) ([1]; 22 hours after IPTG addition): 86.2 unit/ml
Productivity (U/L of medium) ([1]; 22 hours after IPTG addition): 10776 U/L of medium
Total enzyme activity (unit) ([1]; 22 hours after IPTG addition): 3233 unit
Amount of transferred sialic acid ([1]; 22 hours after IPTG addition): 2.16 nmol
Radioactivity (CPM) ([1]; 22 hours after IPTG addition): 1809.0 CPM
Productivity (U/L of medium) ([1]; 22 hours after IPTG addition, listed as ISH224-N1C0 clone): 10,776 U/L of medium
Enzyme concentration in crude enzyme solution (unit/ml) ([1]; 28 hours after IPTG addition): 69.5 unit/ml
Productivity (U/L of medium) ([1]; 28 hours after IPTG addition): 8946 U/L of medium
Total enzyme activity (unit) ([1]; 28 hours after IPTG addition): 2684 unit
Amount of transferred sialic acid ([1]; 28 hours after IPTG addition): 1.74 nmol
Radioactivity (CPM) ([1]; 28 hours after IPTG addition): 1459.0 CPM
time of maximum β-galactoside-α2,6-sialyltransferase activity after IPTG addition ([1]; culture at 30° C., 1 mM IPTG): 22 h
Specific activity (U/mg) ([2]; Crude enzyme solution): 12.0 U/mg
Total activity (U) ([2]; Crude enzyme solution): 13167 U
Specific activity (U/mg) ([2]; after Hydroxyapatite): 68.3 U/mg
Total activity (U) ([2]; after Hydroxyapatite): 9448 U
Specific activity (U/mg) [2, 4]: 113 U/mg
Total activity (U) [2, 4]: 2720 U
Specific activity (U/mg) ([2]; after Q SEPHAROSE): 31.8 U/mg
Total activity (U) ([2]; after Q SEPHAROSE): 11794 U
fold higher specific activity than Pasteurella multocida-derived β-galactoside-α2,3-sialyltransferase (60 U/mg) ([2]; purified fraction): about 1.9 fold
fold higher specific activity than β-galactoside-α2,6-sialyltransferase derived from Photobacterium damselae strain JT0160 (5.5 U/mg) ([2]; purified fraction): about 21 fold
pH of maximum enzyme activity (optimum pH) ([3]; 25° C., acetate, cacodylate, phosphate, TAPS buffers pH 4.0-9.0): 5.0
temperature of maximum enzyme activity (optimum temperature) ([3]; cacodylate buffer (pH 5.0), 10° C. to 50° C.): 30 °C
Radioactivity (cpm) (asialofetuin; 10 mU enzyme, glycoprotein fraction after gel filtration): 3051 cpm
sialic acid transfer to asialofetuin (in words) (asialofetuin): higher efficiency of sialic acid transfer
